Reference: patent publication US20100203046A1 (Biogen, published 2010)
Each block holds one binder with its values, some of them ahead of it.

Experiments:
human C1q (Sigma C0660) [1] = target: T1, human C1q (Sigma C0660) (human, UniProt P02745 23-245; P02746 28-253; P02747 29-245); experiment: C1q ELISA on CD2, purified
T1 construct: Bought protein; also called complement protein C1q

[2] = target: T2, human FcγRI (CD64) on IFNγ-activated U937 cells (human, UniProt P12314 16-374); experiment: CD64 bridging assay, purified
T2 construct: whole, on cells; also called FcγR1
T2 sequence (P12314 16-374): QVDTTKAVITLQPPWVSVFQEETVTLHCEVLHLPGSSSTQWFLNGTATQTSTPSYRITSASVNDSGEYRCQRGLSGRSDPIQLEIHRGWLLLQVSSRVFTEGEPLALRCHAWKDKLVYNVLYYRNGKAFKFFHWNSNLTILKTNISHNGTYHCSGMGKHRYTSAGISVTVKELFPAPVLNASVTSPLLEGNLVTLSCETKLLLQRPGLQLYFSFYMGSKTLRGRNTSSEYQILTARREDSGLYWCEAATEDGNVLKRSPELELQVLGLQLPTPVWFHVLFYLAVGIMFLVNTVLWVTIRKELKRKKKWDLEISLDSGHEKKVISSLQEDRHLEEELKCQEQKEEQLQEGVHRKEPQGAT

[3] = target: T3, human FcγRIII (CD16), CD16a (F158), on CD16-transfected Jurkat cells (human, UniProt P08637 17-254); experiment: CD16 bridging assay, purified
T3 construct: whole, on cells
T3 sequence (P08637 17-254): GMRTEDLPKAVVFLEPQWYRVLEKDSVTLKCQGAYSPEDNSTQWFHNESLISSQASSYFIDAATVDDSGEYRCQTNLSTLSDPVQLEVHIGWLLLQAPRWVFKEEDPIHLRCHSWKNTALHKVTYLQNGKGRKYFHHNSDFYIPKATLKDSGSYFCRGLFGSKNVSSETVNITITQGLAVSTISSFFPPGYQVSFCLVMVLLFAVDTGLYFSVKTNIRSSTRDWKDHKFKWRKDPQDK

[4] = target: T3, human FcγRIII (CD16), CD16a (F158), on …; experiment: CD16 bridging assay, transient
[5] = target: T4, human FcγRIIb (CD32b) on CHO-FcγRII cells (human, UniProt P31994 43-310); experiment: CD32b bridging assay, purified
T4 construct: whole, on cells
T4 sequence (looked up): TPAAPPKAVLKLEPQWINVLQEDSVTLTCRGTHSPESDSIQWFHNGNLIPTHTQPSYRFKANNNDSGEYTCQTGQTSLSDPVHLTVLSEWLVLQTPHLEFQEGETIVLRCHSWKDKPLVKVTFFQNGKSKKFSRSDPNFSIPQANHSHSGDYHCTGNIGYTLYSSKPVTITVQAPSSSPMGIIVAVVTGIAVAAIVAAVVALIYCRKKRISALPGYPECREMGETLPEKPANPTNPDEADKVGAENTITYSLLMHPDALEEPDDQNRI

[6] = target: T3, human FcγRIII (CD16), CD16a (F158), on …; experiment: CD16 bridging assay, purified; remark: listed apart in the source
[7] = target: T5, GST-tagged FcγRIII, CD16a (V158) (UniProt P08637 17-208, limits assumed); experiment: AlphaScreen competition vs huIgG1 beads, purified
T5 construct: the canonical entry carries F there; Captured by biotinylated anti-GST mAb on streptavidin donor beads; also called GST-FcγRIII; not shown: GST tag
T5 sequence (P08637 17-208 F176V limits assumed): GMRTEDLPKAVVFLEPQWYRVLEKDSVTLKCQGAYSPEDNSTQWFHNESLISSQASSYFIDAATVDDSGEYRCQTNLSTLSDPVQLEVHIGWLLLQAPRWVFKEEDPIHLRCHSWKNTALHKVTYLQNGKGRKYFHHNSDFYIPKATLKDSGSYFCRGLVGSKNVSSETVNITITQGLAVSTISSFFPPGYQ
Description: The relative binding affinities to FcγRIII (CD16), of the variant antibodies, was determined using an AlphaScreen assay (Amplified Luminescent Proximity Homogeneous Assay, PerkinElmer, MA, USA). Laser excitation of a donor bead excites oxygen, which if in close proximity to an acceptor bead generates a cascade of chemiluminescent events, ultimately leading to fluorescence emission at 520-620 nm. […] The reaction was carried out for one hour in a 25 μl volume and plates were read in the Fusion Alpha reader (PerkinElmer).

human C1q (Sigma C0660) [8] = target: T1, human C1q (Sigma C0660); experiment: C1q ELISA on CD2, transient
[9] = target: T3, human FcγRIII (CD16), CD16a (F158), on …; experiment: summary of Table 5 assays
[10] = target: T3, human FcγRIII (CD16), CD16a (F158), on …; experiment: CD16 bridging assay, transient; remark: listed apart in the source
[11] = target: T3, human FcγRIII (CD16), CD16a (F158), on …; experiment: CD16 bridging assay, purified; remark: listed apart in the source
[12] = target: T3, human FcγRIII (CD16), CD16a (F158), on …; experiment: summary of Table 6 assays
[13] = target: T3, human FcγRIII (CD16), CD16a (F158), on …; experiment: CD16 bridging assay, transient; remark: listed apart in the source
[14] = target: T3, human FcγRIII (CD16), CD16a (F158), on …; experiment: CD16 bridging assay, transient; remark: listed apart in the source
[15] = target: T5, GST-tagged FcγRIII, CD16a (V158); experiment: summary of Table 4 assays (CD16a)
[16] = target: T3, human FcγRIII (CD16), CD16a (F158), on …; experiment: CD16 bridging assay, purified; remark: listed apart in the source
[17] = target: Human FcγRIIIa on natural killer (NK) cells of a donor (human, UniProt P08637 17-254); experiment: cell-based or functional assay
Sequence of Human FcγRIIIa on natural killer (NK) cells of a donor (P08637 17-254): as the sequence (P08637 17-254) above

T1 sequence (P02745 23-245 limits assumed, chain 1 of 3): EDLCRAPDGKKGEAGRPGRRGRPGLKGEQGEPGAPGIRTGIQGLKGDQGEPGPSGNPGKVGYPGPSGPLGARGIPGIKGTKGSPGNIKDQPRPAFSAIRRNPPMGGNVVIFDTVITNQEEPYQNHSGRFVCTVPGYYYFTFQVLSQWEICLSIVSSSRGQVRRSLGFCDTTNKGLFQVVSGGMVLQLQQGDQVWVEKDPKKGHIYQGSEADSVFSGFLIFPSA
T1 sequence (P02746 28-253 limits assumed, chain 2 of 3): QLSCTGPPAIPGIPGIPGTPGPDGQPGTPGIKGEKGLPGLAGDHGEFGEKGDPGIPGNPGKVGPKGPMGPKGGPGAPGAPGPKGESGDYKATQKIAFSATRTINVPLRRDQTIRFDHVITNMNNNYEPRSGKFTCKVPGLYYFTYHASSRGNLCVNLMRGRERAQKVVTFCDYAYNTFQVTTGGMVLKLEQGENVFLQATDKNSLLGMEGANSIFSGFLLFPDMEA
T1 sequence (P02747 29-245 limits assumed, chain 3 of 3): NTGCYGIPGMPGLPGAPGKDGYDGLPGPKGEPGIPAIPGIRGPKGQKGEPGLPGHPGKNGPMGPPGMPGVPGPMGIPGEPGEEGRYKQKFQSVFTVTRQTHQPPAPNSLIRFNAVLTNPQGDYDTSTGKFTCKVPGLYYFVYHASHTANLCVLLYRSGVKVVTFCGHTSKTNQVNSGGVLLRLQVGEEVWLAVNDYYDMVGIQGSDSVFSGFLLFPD

B1: chCB6-huIgG1 L328N (antibody, name in EU numbering)
heavy: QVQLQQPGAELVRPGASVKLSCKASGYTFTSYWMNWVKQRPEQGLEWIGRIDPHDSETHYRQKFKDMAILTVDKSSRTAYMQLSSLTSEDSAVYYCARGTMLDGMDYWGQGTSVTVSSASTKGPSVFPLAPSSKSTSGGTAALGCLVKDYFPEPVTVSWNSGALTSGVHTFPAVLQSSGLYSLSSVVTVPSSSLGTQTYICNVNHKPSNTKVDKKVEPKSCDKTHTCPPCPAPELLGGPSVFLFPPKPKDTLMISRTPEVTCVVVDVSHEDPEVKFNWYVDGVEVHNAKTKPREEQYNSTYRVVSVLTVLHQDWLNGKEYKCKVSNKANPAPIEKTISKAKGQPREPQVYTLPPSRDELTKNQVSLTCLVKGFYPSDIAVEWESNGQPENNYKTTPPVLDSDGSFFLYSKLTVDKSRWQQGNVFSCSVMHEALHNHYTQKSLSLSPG
light: QIVLTQSPAIMSASPGEKVTMTCRASSSVSHMHWYQQKSGTSPKRWIYDTSKLASGVPARFSGSGSGTSYSLTISSVEAEDAATYYCQQWSSNPLTFGAGTKLELKRTVAAPSVFIFPPSDEQLKSGTASVVCLLNNFYPREAKVQWKVDNALQSGNSQESVTEQDSKDSTYSLSSTLTLSKADYEKHKVYACEVTHQGLSSPVTKSFNRGEC
notes: copies: 2 + 2
- binding result (human C1q (Sigma C0660) [1]): no binding
- binding result [2]: binds
- fold decrease in binding vs WT [3]: 10 fold
- fold decrease in binding vs WT [4]: 2 fold
- fold decrease in binding vs WT [5]: 3 fold

B3: chCB6-huIgG1 T299C (antibody, name in EU numbering)
heavy: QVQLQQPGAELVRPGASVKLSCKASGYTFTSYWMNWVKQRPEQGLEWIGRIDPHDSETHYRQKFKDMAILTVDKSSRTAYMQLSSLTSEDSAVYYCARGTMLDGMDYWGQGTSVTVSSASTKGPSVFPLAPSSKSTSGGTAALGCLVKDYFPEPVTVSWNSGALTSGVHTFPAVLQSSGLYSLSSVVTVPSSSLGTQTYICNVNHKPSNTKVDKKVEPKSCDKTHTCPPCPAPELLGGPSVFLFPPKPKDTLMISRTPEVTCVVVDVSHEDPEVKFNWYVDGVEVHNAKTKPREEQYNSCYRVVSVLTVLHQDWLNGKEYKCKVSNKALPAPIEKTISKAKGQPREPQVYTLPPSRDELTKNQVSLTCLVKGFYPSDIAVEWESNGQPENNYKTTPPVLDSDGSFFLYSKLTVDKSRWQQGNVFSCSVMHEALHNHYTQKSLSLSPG
light: QIVLTQSPAIMSASPGEKVTMTCRASSSVSHMHWYQQKSGTSPKRWIYDTSKLASGVPARFSGSGSGTSYSLTISSVEAEDAATYYCQQWSSNPLTFGAGTKLELKRTVAAPSVFIFPPSDEQLKSGTASVVCLLNNFYPREAKVQWKVDNALQSGNSQESVTEQDSKDSTYSLSSTLTLSKADYEKHKVYACEVTHQGLSSPVTKSFNRGEC
notes: Assay control; copies: 2 + 2
- binding result (human C1q (Sigma C0660) [1]): no binding
- binding result [2]: no binding
- binding result [4]: no binding
- binding result [7]: no binding
- binding result [5]: no binding

B5: chCB6-huIgG1 D376W (antibody, name in EU numbering)
heavy: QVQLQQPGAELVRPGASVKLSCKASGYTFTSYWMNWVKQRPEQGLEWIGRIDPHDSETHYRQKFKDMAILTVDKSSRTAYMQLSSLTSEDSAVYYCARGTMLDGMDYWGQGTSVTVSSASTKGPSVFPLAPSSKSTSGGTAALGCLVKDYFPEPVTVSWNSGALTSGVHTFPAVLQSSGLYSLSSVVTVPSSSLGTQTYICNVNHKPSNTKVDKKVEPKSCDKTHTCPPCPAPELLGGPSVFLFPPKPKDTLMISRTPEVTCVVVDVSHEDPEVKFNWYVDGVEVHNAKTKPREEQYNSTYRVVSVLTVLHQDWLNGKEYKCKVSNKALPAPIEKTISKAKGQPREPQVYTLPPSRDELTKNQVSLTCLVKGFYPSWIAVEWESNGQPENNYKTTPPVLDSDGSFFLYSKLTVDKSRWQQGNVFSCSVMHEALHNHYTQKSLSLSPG
light: QIVLTQSPAIMSASPGEKVTMTCRASSSVSHMHWYQQKSGTSPKRWIYDTSKLASGVPARFSGSGSGTSYSLTISSVEAEDAATYYCQQWSSNPLTFGAGTKLELKRTVAAPSVFIFPPSDEQLKSGTASVVCLLNNFYPREAKVQWKVDNALQSGNSQESVTEQDSKDSTYSLSSTLTLSKADYEKHKVYACEVTHQGLSSPVTKSFNRGEC
notes: copies: 2 + 2
- fold decrease in binding vs WT [12]: > 10 fold
- fold decrease in binding vs WT [13]: 15 fold
- binding result (human C1q (Sigma C0660) [8]): no binding
- fold decrease in binding vs WT [6]: 3 fold

B6: chCB6-huIgG1 D376K (antibody, name in EU numbering)
heavy: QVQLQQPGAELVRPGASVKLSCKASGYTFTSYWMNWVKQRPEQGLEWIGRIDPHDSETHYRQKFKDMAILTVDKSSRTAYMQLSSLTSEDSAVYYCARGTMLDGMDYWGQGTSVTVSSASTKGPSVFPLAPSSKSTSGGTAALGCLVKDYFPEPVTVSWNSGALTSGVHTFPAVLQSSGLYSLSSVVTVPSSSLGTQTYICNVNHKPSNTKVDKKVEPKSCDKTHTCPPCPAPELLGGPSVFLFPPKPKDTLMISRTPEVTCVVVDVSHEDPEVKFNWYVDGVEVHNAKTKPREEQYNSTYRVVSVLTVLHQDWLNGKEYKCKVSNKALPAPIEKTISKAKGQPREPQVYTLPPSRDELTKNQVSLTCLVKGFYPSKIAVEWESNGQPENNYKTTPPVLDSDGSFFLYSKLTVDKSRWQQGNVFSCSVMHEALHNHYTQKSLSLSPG
light: QIVLTQSPAIMSASPGEKVTMTCRASSSVSHMHWYQQKSGTSPKRWIYDTSKLASGVPARFSGSGSGTSYSLTISSVEAEDAATYYCQQWSSNPLTFGAGTKLELKRTVAAPSVFIFPPSDEQLKSGTASVVCLLNNFYPREAKVQWKVDNALQSGNSQESVTEQDSKDSTYSLSSTLTLSKADYEKHKVYACEVTHQGLSSPVTKSFNRGEC
notes: copies: 2 + 2
- fold decrease in binding vs WT [12]: > 10 fold
- fold decrease in binding vs WT [13]: 15 fold
- binding result (human C1q (Sigma C0660) [8]): binds

B8: chCB6-huIgG1 triple mutant S298A/E333A/K334A (antibody, name in EU numbering)
heavy: QVQLQQPGAELVRPGASVKLSCKASGYTFTSYWMNWVKQRPEQGLEWIGRIDPHDSETHYRQKFKDMAILTVDKSSRTAYMQLSSLTSEDSAVYYCARGTMLDGMDYWGQGTSVTVSSASTKGPSVFPLAPSSKSTSGGTAALGCLVKDYFPEPVTVSWNSGALTSGVHTFPAVLQSSGLYSLSSVVTVPSSSLGTQTYICNVNHKPSNTKVDKKVEPKSCDKTHTCPPCPAPELLGGPSVFLFPPKPKDTLMISRTPEVTCVVVDVSHEDPEVKFNWYVDGVEVHNAKTKPREEQYNATYRVVSVLTVLHQDWLNGKEYKCKVSNKALPAPIAATISKAKGQPREPQVYTLPPSRDELTKNQVSLTCLVKGFYPSDIAVEWESNGQPENNYKTTPPVLDSDGSFFLYSKLTVDKSRWQQGNVFSCSVMHEALHNHYTQKSLSLSPG
light: QIVLTQSPAIMSASPGEKVTMTCRASSSVSHMHWYQQKSGTSPKRWIYDTSKLASGVPARFSGSGSGTSYSLTISSVEAEDAATYYCQQWSSNPLTFGAGTKLELKRTVAAPSVFIFPPSDEQLKSGTASVVCLLNNFYPREAKVQWKVDNALQSGNSQESVTEQDSKDSTYSLSSTLTLSKADYEKHKVYACEVTHQGLSSPVTKSFNRGEC
notes: Assay control; triple mutant as described by Shields et al; also called Triple Mutation S298A, E333A, K334A; copies: 2 + 2
- fold decrease in binding vs WT (human C1q (Sigma C0660) [1]): 2 fold
- fold decrease in binding vs WT [2]: 4 fold
- fold increase in binding vs WT [3]: 5 fold
- ADCC NK cell, purified (fold increase vs WT) [17]: 21 fold
- fold increase in binding vs WT [4]: 10 fold
- fold increase in binding vs WT [7]: 4 fold

More lines, now with the values ahead:

- fold decrease in binding vs WT (human C1q (Sigma C0660) [1]): 3 fold
- fold decrease in binding vs WT [6]: 3 fold
B2: chCB6-huIgG1 D376Y (antibody, name in EU numbering)
heavy: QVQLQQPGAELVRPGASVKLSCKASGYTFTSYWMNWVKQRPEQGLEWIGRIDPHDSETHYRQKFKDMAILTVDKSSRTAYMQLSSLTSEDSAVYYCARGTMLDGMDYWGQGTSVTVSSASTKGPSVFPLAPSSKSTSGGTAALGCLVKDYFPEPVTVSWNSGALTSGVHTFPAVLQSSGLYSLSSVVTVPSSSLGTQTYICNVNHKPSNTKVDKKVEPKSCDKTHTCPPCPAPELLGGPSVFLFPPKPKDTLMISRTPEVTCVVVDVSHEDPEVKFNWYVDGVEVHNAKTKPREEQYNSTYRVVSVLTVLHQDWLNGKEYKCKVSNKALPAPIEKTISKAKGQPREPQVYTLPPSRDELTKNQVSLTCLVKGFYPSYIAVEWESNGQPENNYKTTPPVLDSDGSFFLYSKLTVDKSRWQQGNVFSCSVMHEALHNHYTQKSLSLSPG
light: QIVLTQSPAIMSASPGEKVTMTCRASSSVSHMHWYQQKSGTSPKRWIYDTSKLASGVPARFSGSGSGTSYSLTISSVEAEDAATYYCQQWSSNPLTFGAGTKLELKRTVAAPSVFIFPPSDEQLKSGTASVVCLLNNFYPREAKVQWKVDNALQSGNSQESVTEQDSKDSTYSLSSTLTLSKADYEKHKVYACEVTHQGLSSPVTKSFNRGEC
notes: copies: 2 + 2

- fold decrease in binding vs WT (human C1q (Sigma C0660) [1]): 3 fold
- fold decrease in binding vs WT (human C1q (Sigma C0660) [8]): 5 fold
- fold decrease in binding vs WT [9]: > 10 fold
- fold decrease in binding vs WT [10]: 13 fold
- fold decrease in binding vs WT [11]: 5 fold
B4: chCB6-huIgG1 Y296A (antibody, name in EU numbering)
heavy: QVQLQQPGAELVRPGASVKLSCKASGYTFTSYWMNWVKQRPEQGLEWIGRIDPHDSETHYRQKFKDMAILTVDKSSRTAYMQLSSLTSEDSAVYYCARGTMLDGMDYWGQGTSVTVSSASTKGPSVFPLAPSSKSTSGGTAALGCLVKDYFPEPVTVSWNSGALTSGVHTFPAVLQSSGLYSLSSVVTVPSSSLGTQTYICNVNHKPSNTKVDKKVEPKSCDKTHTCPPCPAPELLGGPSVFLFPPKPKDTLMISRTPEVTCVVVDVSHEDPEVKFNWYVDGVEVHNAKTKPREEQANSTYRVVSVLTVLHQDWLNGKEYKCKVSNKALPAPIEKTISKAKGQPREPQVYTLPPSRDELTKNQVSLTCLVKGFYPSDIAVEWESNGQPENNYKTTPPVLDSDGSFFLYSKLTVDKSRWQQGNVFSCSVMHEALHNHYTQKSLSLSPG
light: QIVLTQSPAIMSASPGEKVTMTCRASSSVSHMHWYQQKSGTSPKRWIYDTSKLASGVPARFSGSGSGTSYSLTISSVEAEDAATYYCQQWSSNPLTFGAGTKLELKRTVAAPSVFIFPPSDEQLKSGTASVVCLLNNFYPREAKVQWKVDNALQSGNSQESVTEQDSKDSTYSLSSTLTLSKADYEKHKVYACEVTHQGLSSPVTKSFNRGEC
notes: copies: 2 + 2

- fold increase in binding vs WT [14]: 4 fold
- binding result (human C1q (Sigma C0660) [1]): binds
- fold increase in binding vs WT [15]: > 10 fold
- fold increase in binding vs WT [16]: 6 fold
- fold increase in binding vs WT [7]: 15 fold
B7: chCB6-huIgG1 S239D/I332D (antibody, name in EU numbering)
heavy: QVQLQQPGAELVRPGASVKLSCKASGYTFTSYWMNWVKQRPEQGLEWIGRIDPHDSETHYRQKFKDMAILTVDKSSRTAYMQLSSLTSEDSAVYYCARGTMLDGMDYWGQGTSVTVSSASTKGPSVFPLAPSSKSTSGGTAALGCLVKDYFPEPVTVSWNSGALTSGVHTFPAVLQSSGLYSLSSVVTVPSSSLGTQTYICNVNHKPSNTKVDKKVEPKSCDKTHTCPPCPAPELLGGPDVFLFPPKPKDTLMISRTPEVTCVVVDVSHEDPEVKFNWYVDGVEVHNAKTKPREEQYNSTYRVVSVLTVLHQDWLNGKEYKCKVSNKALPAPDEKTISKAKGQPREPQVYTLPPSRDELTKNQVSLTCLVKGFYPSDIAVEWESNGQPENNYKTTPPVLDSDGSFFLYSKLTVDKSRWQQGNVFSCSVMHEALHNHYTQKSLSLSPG
light: QIVLTQSPAIMSASPGEKVTMTCRASSSVSHMHWYQQKSGTSPKRWIYDTSKLASGVPARFSGSGSGTSYSLTISSVEAEDAATYYCQQWSSNPLTFGAGTKLELKRTVAAPSVFIFPPSDEQLKSGTASVVCLLNNFYPREAKVQWKVDNALQSGNSQESVTEQDSKDSTYSLSSTLTLSKADYEKHKVYACEVTHQGLSSPVTKSFNRGEC
notes: copies: 2 + 2

- fold increase in binding vs WT [14]: 12 fold
- binding result (human C1q (Sigma C0660) [1]): binds
- fold increase in binding vs WT [15]: > 10 fold
- fold increase in binding vs WT [16]: 8 fold
- fold increase in binding vs WT [7]: 26 fold
B9: chCB6-huIgG1 S239D/I332E (antibody, name in EU numbering)
heavy: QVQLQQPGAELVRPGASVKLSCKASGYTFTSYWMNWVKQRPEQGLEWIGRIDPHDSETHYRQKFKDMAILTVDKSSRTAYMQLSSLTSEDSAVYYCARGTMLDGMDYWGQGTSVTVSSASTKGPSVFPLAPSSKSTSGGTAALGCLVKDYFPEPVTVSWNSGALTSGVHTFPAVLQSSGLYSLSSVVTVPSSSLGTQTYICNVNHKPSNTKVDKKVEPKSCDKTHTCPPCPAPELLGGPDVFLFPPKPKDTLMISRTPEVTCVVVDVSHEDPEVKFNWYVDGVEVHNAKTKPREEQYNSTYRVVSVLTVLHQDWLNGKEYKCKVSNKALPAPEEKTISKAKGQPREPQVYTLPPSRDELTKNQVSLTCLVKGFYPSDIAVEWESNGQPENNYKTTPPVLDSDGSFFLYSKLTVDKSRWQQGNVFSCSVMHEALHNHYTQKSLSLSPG
light: QIVLTQSPAIMSASPGEKVTMTCRASSSVSHMHWYQQKSGTSPKRWIYDTSKLASGVPARFSGSGSGTSYSLTISSVEAEDAATYYCQQWSSNPLTFGAGTKLELKRTVAAPSVFIFPPSDEQLKSGTASVVCLLNNFYPREAKVQWKVDNALQSGNSQESVTEQDSKDSTYSLSSTLTLSKADYEKHKVYACEVTHQGLSSPVTKSFNRGEC
notes: copies: 2 + 2
